Patent US20150359847A1, “METHOD AND COMPOSITION FOR CONFERRING NEUROPROTECTION” (BLOOD SYSTEMS RESEARCH INSTITUTE, priority 2014, published 2015)

System: mouse model of controlled cortical impact (CCI)
Test: Elevated Plus Maze in controlled cortical impact (CCI) TBI mice
Assay type: in vivo
Description: The mouse controlled cortical impact (CCI) injury model was used as previously described. In brief, mice were anesthetized with 5% isoflurane and 1:1 O2:N2 mixture. Animals were mounted on a stereotaxic frame and were secured by ear bars and an incisor bar. Anesthesia was maintained with 2.0% isoflurane and 1:1 O2:N2 mixture. A 5-mm-diameter craniotomy was made midway between bregma and lambda on the right side, with the medial edge of the craniotomy 1 mm lateral to midline. Injury was produced using a magnetic impactor mounted at an angle of 110° from the vertical plane. A single impact at a velocity of 4+/−0.2 m/s was used inflict a moderate to severe injury (1.2-1.3 mm impact depth). After injury, the incision was closed. Sham animals underwent identical surgeries except for impact injury. Core body temperature was monitored using a rectal thermometer and maintained at 36.8° C.-37.2° C. with a heating pad throughout the procedure. […] Animal research was performed with approval of the Institutional Animal Care and Use Committee at ISIS Services LLC (San Carlos, Calif., USA). […]
The elevated plus maze was used to assess anxiety behavior in mice. […] The frequency of entries into the open and closed arms was recorded with an overhead camera using tracking software (Ethovision, Noldus Information Technology, Leesbury, Va.).

B1: TIMP3: Recombinant tissue inhibitor of matrix metalloproteinase-3, a soluble protein released by MSCs, obtained from Amgen Inc. (protein)
chain: CTCSPSHPQDAFCNSDIVIRAKVVGKKLVKEGPFGTLVYTIKQMKMYRGFTKMPHVQYIHTEASESLCGLKLEVNKYQYLLTGRVYDGKMYTGLCNFVERWDQLTLSQRKGLNYRYHLGCNCKIKSCYYLPCFVTSKNECLWTDMLSNFGYPGYQSKHYACIRQKGGYCSWYRGWAPPDKSIINATDP
With B1 the “frequency of entries into the closed arms (Elevated Plus Maze)” value (TBI+TIMP3 vs TBI alone, day 3) was “comparable frequency” and the “frequency of entries into the open arms (Elevated Plus Maze)” value (TIMP3 60 μg/kg tail-vein at 1 hr, 24 hrs, 72 hrs post-TBI, EPM on day 3, vs TBI alone) was 11±1.8.
